Results taken from article PMC6065357 (2018).

Biological target: T1, pro-brain-derived neurotrophic factor (proBDNF, residues 19-249, furin sites changed to AA) (UniProt P21237 19-249)
T1 chain: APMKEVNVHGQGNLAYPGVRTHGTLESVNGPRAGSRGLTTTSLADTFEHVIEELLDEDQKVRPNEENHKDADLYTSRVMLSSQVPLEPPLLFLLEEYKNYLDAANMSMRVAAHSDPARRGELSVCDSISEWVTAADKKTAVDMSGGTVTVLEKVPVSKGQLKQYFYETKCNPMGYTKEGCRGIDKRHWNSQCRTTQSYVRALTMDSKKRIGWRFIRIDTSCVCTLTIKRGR
Test: SPR; second site of two-site fit, possibly sSorCS2 oligomerization

B1: mouse SorCS2 mature extracellular segment (sSorCS2, residues 117-1072) (receptor)
chain: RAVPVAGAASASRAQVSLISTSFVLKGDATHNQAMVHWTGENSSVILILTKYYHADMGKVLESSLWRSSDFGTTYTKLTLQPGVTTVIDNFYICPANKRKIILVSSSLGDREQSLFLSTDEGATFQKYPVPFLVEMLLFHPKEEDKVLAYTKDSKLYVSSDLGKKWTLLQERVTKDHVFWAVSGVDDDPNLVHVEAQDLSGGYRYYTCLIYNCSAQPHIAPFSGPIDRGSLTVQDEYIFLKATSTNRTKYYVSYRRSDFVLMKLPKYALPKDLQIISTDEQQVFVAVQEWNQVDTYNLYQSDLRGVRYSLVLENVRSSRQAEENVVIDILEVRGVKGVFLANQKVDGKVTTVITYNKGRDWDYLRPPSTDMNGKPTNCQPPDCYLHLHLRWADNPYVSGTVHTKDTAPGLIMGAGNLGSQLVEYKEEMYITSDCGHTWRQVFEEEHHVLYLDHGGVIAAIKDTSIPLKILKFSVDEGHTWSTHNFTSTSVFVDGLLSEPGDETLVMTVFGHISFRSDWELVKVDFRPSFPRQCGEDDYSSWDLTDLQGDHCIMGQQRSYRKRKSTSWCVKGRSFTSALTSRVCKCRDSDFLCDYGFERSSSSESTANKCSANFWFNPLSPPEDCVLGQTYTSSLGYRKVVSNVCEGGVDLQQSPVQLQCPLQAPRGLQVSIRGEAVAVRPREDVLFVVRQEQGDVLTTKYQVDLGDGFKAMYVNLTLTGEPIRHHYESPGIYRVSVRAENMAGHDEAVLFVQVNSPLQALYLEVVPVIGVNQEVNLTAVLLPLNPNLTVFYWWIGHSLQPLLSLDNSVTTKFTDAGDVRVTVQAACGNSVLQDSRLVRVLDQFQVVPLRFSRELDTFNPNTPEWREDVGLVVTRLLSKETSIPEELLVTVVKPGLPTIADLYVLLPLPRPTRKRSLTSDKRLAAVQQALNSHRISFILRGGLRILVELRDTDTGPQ
Kd: ~30 µM
